B1: HDV Ribozyme (parent)
chain: GGCCGGCAUGGUCCCAGCCUCCUCGCUGGCGCCGGCUGGGCAACAUUCCGAGGGGACCGUCCCCUCGGUAAUGGCGAAUGGGACCCA

In this data set the parent is B1. Nature of the data set: self-cleavage, relative activity (ratio to wild type); higher = more cleavage; co-transcriptional.
Turning to GGCCGGCAUGGUCCCAGCCUCCUCGCUGGCGCCGGCUGGGGAACAUUCCGAGGGGACCGUCCCCUCGGUAAUGGCGAUUGGGACCCA [C41G A78U], the self-cleavage is 0.178.

As for GGCCGGCAUGGUCCCAGCCUCCUCGCUGGCGCCGGCUGGGCAACAUUCCGAGGGGACCGUCCCCUCGGAAAUGGCGAAUUGGACCCA [U69A G80U], the self-cleavage was determined as 0.141.

As for GGCCGGCAUGGUCCCAGCCUCCUCGCUGGCGCCGGCUGGGCAACAUUCCGAGGGGACCGUCCCCUCGGUAAUGGCUACUGGGACCCA [G76U A78C], the self-cleavage worked out at 0.219.

With GGCCGGCAUGGUCCCACCCUCCUCGCUGGCGCAGGCUGGGCAACAUUCCGAGGGGACCGUCCCCUCGGUAAUGGCGAAUGGGACCCA [G17C C33A], the self-cleavage is 0.0437.

Consider GGCCGGAAUGGUCCCAGCCUCCUCGCUGGCGCCGGCUGGGCAACAUUCCGAGGGGACCGUCCCCUCGGUGAUGGCGAAUGGGACCCA [C7A A70G], for which the self-cleavage was 0.426.

Regarding GGCCGGCAUGGUCCCAGCCUCCUCGCUGGCGCCGCCUGGGCAACAUUCCGAGGGGACCGUCCCCUCGGUAAUGGCGUAUGGGACCCA [G35C A77U], the self-cleavage turned out to be 0.181.

For the variant GGCCGGCAUGGUCCCAGCCUCCUCGCUGGCGCCGGCUGGGCAACAUUCCGAGGGGACCGUCUCCUCGGUAAUGGCGAAUGGGAGCCA [C62U C84G], the self-cleavage worked out at 0.692.

For GGCCGGCAUGGUCCCAGCCUCCUCGCUGGCGGCGGCUGGGCAACAUUCCGAGGGGACCGUCCCCUCGGUAAUGGCGAAUGCGACCCA [C32G G81C], the self-cleavage turned out to be 0.0773.

Turning to GGCCGGCAUGGUCCCAGCCUCCUGGCUGGCGCCGGCUGGGCAACAUUCCGAGGGGACCGGCCCCUCGGUAAUGGCGAAUGGGACCCA [C24G U60G], the self-cleavage is 0.0755.

Take GGCCGGCAUGGUCCCAGCCUCCUCGUUCGCGCCGGCUGGGCAACAUUCCGAGGGGACCGUCCCCUCGGUAAUGGCGAAUGGGACCCA [C26U G28C]: the self-cleavage was determined as 0.19.

Turning to GGCCGGCAUGGUCCCAGCCUCCUCGCUGGCGCCGGCUUGACAACAUUCCGAGGGGACCGUCCCCUCGGUAAUGGCGAAUGGGACCCA [G38U G40A], the self-cleavage was 0.222.

In the case of GGCCGGCAGCGUCCCAGCCUCCUCGCUGGCGCCGGCUGGGCAACAUUCCGAGGGGACCGUCCCCUCGGUAAUGGCGAAUGGGACCCA [U9G G10C], the self-cleavage is 0.489.

Turning to GGCCGGCAUGGUCCCAGCCUCCUCGCUGGCGCCGGCUGGGCUACAUUCCGAGGGGACCGUCCCCUCGGUACUGGCGAAUGGGACCCA [A42U A71C], the self-cleavage amounted to 0.342.

Regarding GGCCGGCAUGGUCCCAGCCUCCUCGCUGGCGUCGGCUGGGCAACAUUCCGAGGGGACCGUCCCCUCGGUCAUGGCGAAUGGGACCCA [C32U A70C], the self-cleavage was determined as 0.68.

Consider GGCCGGCAUGGUCCCAGCCUCCUCGCUGGCGCCGGCUGGGCAACAUUCCGAGGGGAACGUCCCCUCGGUCAUGGCGAAUGGGACCCA [C57A A70C], for which the self-cleavage is 0.773.

Regarding GUCCGGCAUGGUCCCAGCCUCCUCGAUGGCGCCGGCUGGGCAACAUUCCGAGGGGACCGUCCCCUCGGUAAUGGCGAAUGGGACCCA [G2U C26A], the self-cleavage is 0.0357.

Take GGCCGGCAUGGUCCCAGCCUCCUCGCUGGCGCCGGCUGGGCAACAUUCCGAGGGGACCGUCCCCUCGGUAAAGGCGAAUGGGACCCC [U72A A87C]: the self-cleavage came out at 0.81.

As to GGCCGGCAUGGUCCCAUCCUCCUCGCUGGCGCCGGCUGGGCAACAUUCCGAGGGGACCGUCCCCUUGGUAAUGGCGAAUGGGACCCA [G17U C66U], the self-cleavage was 0.469.

For the variant GGCCGGCAUGGUCCCAGCCUCCUAGCUGGCGCCGGCUGGGCAACAUUCCGAGGGGACCGUCCCCUCAGUAAUGGCGAAUGGGACCCA [C24A G67A], the self-cleavage is 0.802.

For the variant GGCCGGCAUGGUCCCAGCCUCCUCGCUGGCGACGGCUGGGCAACAUUCCGAGGGGACCGUCCCCUCGGUAAUGGCGAAUGGGAGCCA [C32A C84G], the self-cleavage worked out at 0.111.

Consider GGCCGGCAUGGUCCCAGCCUCCUCGCUGGCGCCGGCUGGGCAACACUCCGAGGGGAUCGUCCCCUCGGUAAUGGCGAAUGGGACCCA [U46C C57U], for which the self-cleavage worked out at 0.705.

On to GGCCGGCAUGGUCCCAGCCUCCUCGCUGGCGCAGGCUGGGCAACAUUCCGAGGGGACCGUCCCCUCGGUAAUGGCGAAUGGGACGCA [C33A C85G], for which the self-cleavage worked out at 0.309.

As for GGCGGGCAUGGUCCCAGCCUCCUCGCUGGCGCCGGCUGGGCAACAUUCCGAGGGGACCGUCCCCUCGGUAAGGGCGAAUGGGACCCA [C4G U72G], the self-cleavage is 0.0519.

On to GGCCGGUAUGGUCCCAGCCUCCUCGCUGGCGCCGGCUGAGCAACAUUCCGAGGGGACCGUCCCCUCGGUAAUGGCGAAUGGGACCCA [C7U G39A], for which the self-cleavage stood at 0.3.

As to GGCCGGCAUGGUCCCAGCCUCCUCGCUGGCGCCGGCUUGGCAACAUUCCGAGGGGACCUUCCCCUCGGUAAUGGCGAAUGGGACCCA [G38U G59U], the self-cleavage was found to be 0.284.

With GGCCGGCAUGGUCCCAGCCUCCUCGCUGGCGCCGGCUGGGCUACAUUCCGAAGGGACCGUCCCCUCGGUAAUGGCGAAUGGGACCCA [A42U G52A], the self-cleavage worked out at 0.612.

As to GGCCGGCAUGGUCCCAGCCUCCUCGCUGGCGCCGGCUGGGCAACAUUCCGAGGGGACCCUCCCCUCGGUAAAGGCGAAUGGGACCCA [G59C U72A], the self-cleavage stood at 0.773.

Turning to GGCCGGUAUGGUCCCAGCCUCCUCGCUGGCGCCGGCUGGGCAACAUUCCGAGGGGACCGUCCCCUCGGUAAUUGCGAAUGGGACCCA [C7U G73U], the self-cleavage amounted to 0.277.

On to GGCCGGCAUGGUCCCAUCCUCCUCGCUGGCGCCGGCUGGGCAACAUUCCGAGGGGACCGUCCCCUCGGUAAUGGUGAAUGGGACCCA [G17U C75U], for which the self-cleavage is 0.181.

GGCCGGCAUGGUCCCAGCCUCCUCGCUGGCGCCGGCUGGGCAACACUCCGAGGGGACCGUCCCCUCGGUAAUCGCGAAUGGGACCCA [U46C G73C]: the self-cleavage is 0.525.

Take GGCCGGCAUGGUUCCAGCCUCCUCGCUGGCGCCGGUUGGGCAACAUUCCGAGGGGACCGUCCCCUCGGUAAUGGCGAAUGGGACCCA [C13U C36U]: the self-cleavage amounted to 0.256.

Consider GGCCGGCAUGGUCCCAGCCUCCUCGCUGGCGCCGGCUGGCCAACAUUCCGAGGGGACCGUCCCCUCGGUGAUGGCGAAUGGGACCCA [G40C A70G], for which the self-cleavage worked out at 0.0941.
